Source: publication PMC6625852

Tests used:
[1] = target: human factor VII N360Q mutant, C-terminal V5 tag (human); assay: co-IP
[2] = target: human factor VII wild-type, C-terminal V5 tag (human); assay: co-IP

Molecule | level co-precipitated, percent of that with WT FVII [1] | level co-precipitated in DNJ-treated cells, percent of WT in untreated cells [2]
binding immunoglobulin protein (BiP) (from UniProt P11021 19-654) (natural protein) | 230% | 
calnexin (natural protein) HDGHDDDVIDIEDDLDDVIEEVEDSKPDTTAPPSSPKVTYKAPVPTGEVYFADSFDRGTLSGWILSKAKKDDTDDEIAKYDGKWEVEEMKESKLPGDKGLVLMSRAKHHAISAKLNKPFLFDTKPLIVQYEVNFQNGIECGGAYVKLLSKTPELNLDQFHDKTPYTIMFGPDKCGEDYKLHFIFRHKNPKTGIYEEKHAKRPDADLKTYFTDKKTHLYTLILNPDNSFEILVDQSVVNSGNLLNDMTPPVNPSREIEDPEDRKPEDWDERPKIPDPEAVKPDDWDEDAPAKIPDEEATKPEGWLDDEPEYVPDPDAEKPEDWDEDMDGEWEAPQIANPRCESAPGCGVWQRPVIDNPNYKGKWKPPMIDNPSYQGIWKPRKIPNPDFFEDLEPFRMTPFSAIGLELWSMTSDIFFDNFIICADRRIVDDWANDGWGLKKAADGAAEPGVVGQMIEAAEERPWLWVVYILTVALPVFLVILFCCSGKKQTSGMEYKKTDAPQPDVKEEEEEKEEEKDKGDEEEEGEEKLEEKQKSDAEEDGGTVSQEEEDRKPKAEEDEILNRSPRNRKPRRE | 124% | 129%
